Results on one molecule are retold here after patent publication US20210292412A1 (CHENGDU CONMED BIOSCIENCES, published 2021).

The target in the assay is T1, human CD47 on CCRF-CEM cells (CD47 positive cells) (human, UniProt Q08722 19-323).
T1 construct: whole, on cells; also called hCD47-expressing tumor cells CCRF-CEM; CD47 receptor on the cell surface
Nature of the assay: CD47-SIRPα blocking experiment, FIG. 5 legend.

B1: hybridoma positive clone 10B8 (antibody, V domains shown)
VH: QIQLQQSGPDLVKPGASVKISCKASGYTFTDYYIHWMKQKPGQGLEWIGWIYPGSGNTKYNEKFKGKATLTVDTSSSTPYMQLSSLTSEDTAVYFCARRREDSFDYWGQVTTLTVSS
VL: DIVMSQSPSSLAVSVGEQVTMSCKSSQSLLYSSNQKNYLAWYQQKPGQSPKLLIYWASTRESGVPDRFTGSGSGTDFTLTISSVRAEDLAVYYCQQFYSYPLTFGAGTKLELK
notes: Mouse hybridoma supernatant in the assay; Variable regions are printed for subclone 10B8-B8; also called Clone 10B8-B8
For B1, the binding result is listed as “binds”.
